Substrate in the series: Nc1ncnc2c1ncn2[C@@H]1O[C@H](COP(=O)(O)OP(=O)(O)OP(=O)(O)O)[C@@H](O)[C@H]1O
Briefly: DIPP1-coupled Pi-release malachite green assay. Type of series: biochemical, Zea mays. The note with it: 25 μM InsP6, 3.5 mM MgCl2, 100 mM KCl, pH 7.2, 25 °C.

One may read the Km as the substrate concentration at which the rate is half of its maximum.

B1: ZmITPK1 (Zea mays) (protein)
chain: MASDAAAEPSSGVTHPPRYVIGYALAPKKQQSFIQPSLVAQAASRGMDLVPVDASQPLAEQGPFHLLIHKLYGDDWRAQLVAFAARHPAVPIVDPPHAIDRLHNRISMLQVVSELDHAADQDSTFGIPSQVVVYDAAALADFGLLAALRFPLIAKPLVADGTAKSHKMSLVYHREGLGKLRPPLVLQEFVNHGGVIFKVYVVGGHVTCVKRRSLPDVSPEDDASAQGSVSFSQVSNLPTERTAEEYYGEKSLEDAVVPPAAFINQIAGGLRRALGLQLFNFDMIRDVRAGDRYLVIDINYFPGYAKMPGYETVLTDFFWEMVHKDGVGNQQEEKGANHVVVK
In the case of B1, the Km amounted to 364 µM.
